This note sets out measurements from publication PMC9697525, “A High-Quality CdSe/CdS/ZnS Quantum-Dot-Based FRET Aptasensor for the Simultaneous Detection of Two Different Alzheimer’s Disease Core Biomarkers”.

In data set [1] the target is amyloid-beta oligomer (AbO), from Abeta(1-40) peptide (UniProt P05067 672-711). The data set is described as follows: FRET fluorescence recovery (displacement from Au NRs@PDA); Au NRs@PDA quencher; LOD 50 pM (not a Kd); QD-aptamer conjugates (in deionized water) with 0.5 mg/mL Au NRs@PDA stock (55 uL to 20 uL), 30 min quench, then 120 min with protein at room temperature; excitation 405 nm; buffer, salt and pH not stated. To be noted: protein: commercial; label: QDs625 (CdSe/CdS/ZnS) via 5' thiol.

Data set [2] has as its target amyloid-beta monomer (AbM) (UniProt P05067 672-711). The data set is described as follows: FRET fluorescence recovery (displacement from Au NRs@PDA); 20 nM AbM; no obvious recovery; QD-aptamer conjugates (in deionized water) with 0.5 mg/mL Au NRs@PDA stock (55 uL to 20 uL), 30 min quench, then 120 min with protein at room temperature; excitation 405 nm; buffer, salt and pH not stated. Particulars: protein: commercial; label: QDs665 (CdSe/CdS/ZnS) via 5' thiol.

Chain of amyloid-beta oligomer (AbO), from Abeta(1-40) peptide (P05067 672-711): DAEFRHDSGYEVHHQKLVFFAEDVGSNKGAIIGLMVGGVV
Chain of amyloid-beta monomer (AbM) (P05067 672-711): as above

GCCTGTGTTGGGGCGGGTGCG (ssDNA, 5'-HS-(CH2)6) [AbO aptamer]: the binding result in data set [1] is “binds”.

Turning to GCGGAGCGTGGCAGG (ssDNA, 5'-HS-(CH2)6) [tau aptamer], in data set [2], the binding result is “no binding”.
